Legend:
[1] = biological target: Kv1.3 K+ channel, wild-type, expressed in cells (species not stated) (Homo sapiens (Human)) (UniProt P22001); test: cell-based or functional assay
Rattus Kv1.2 (Rattus) [2] = biological target: Rattus Kv1.2 (Rattus) (UniProt P63142); test: two-electrode voltage clamp, kinetics of block in Xenopus oocytes
Rattus Kv1.2 (Rattus) [3] = biological target: Rattus Kv1.2 (Rattus) (UniProt P63142); test: two-electrode voltage clamp, block of currents in Xenopus oocytes, dose-response fit
[4] = biological target: KcsA-Kv1.3 (KcsA carrying a segment of the Kv1.3 pore loop)
[5] = biological target: KcsA-Kv1.3 (KcsA carrying a segment of the Kv1.3 pore loop); remark: listed apart in the source
[6] = biological target: KcsA-Kv1.3 (KcsA carrying a segment of the Kv1.3 pore loop); remark: listed apart in the source
[7] = biological target: KcsA-Kv1.3 (KcsA carrying a segment of the Kv1.3 pore loop); test: phage library panning on immobilized KcsA-1.3
[8] = biological target: Kv1.3 K+ channel, wild-type, expressed in cells (species not stated) (Homo sapiens (Human)) (UniProt P22001); test: panning of a 2:2:96 phage mixture on HEK cells expressing Kv1.3
Target sequence in this assay (P22001 whole entry, form in doubt): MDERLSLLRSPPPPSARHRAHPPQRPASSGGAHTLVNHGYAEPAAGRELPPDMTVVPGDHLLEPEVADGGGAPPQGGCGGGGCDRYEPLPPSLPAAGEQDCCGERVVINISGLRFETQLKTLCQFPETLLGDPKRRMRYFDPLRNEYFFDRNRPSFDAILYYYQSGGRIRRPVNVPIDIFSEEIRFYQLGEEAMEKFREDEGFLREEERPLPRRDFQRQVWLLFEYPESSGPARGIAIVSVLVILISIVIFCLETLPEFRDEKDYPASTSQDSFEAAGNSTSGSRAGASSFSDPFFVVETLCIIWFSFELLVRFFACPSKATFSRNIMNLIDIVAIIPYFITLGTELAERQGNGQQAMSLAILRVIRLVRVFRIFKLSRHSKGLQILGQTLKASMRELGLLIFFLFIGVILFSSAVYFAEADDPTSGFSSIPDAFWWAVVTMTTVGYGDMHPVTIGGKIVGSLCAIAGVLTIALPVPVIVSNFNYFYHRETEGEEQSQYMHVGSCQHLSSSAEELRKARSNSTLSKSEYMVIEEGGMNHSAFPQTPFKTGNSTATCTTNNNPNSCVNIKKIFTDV

Homo Kv1.3 (Homo) [9] = biological target: Homo Kv1.3 (Homo) (UniProt P22001); test: two-electrode voltage clamp, block of currents in Xenopus oocytes, dose-response fit
Chain of Homo Kv1.3 (Homo) (P22001 whole entry): as the sequence (P22001 whole entry, form in doubt) above

[10] = biological target: Kv1.2 K+ channel (species not stated); test: cell-based or functional assay
[11] = biological target: Kv1.1 K+ channel (species not stated); test: cell-based or functional assay
Homo Kv1.3 (Homo) [12] = biological target: Homo Kv1.3 (Homo) (UniProt P22001); test: cell-based or functional assay
[13] = biological target: BK channel (species not stated); test: cell-based or functional assay
[14] = biological target: KcsA-Kv1.3 (KcsA carrying a segment of the Kv1.3 pore loop); remark: listed apart in the source

Chain of Rattus Kv1.2 (Rattus) (P63142 whole entry): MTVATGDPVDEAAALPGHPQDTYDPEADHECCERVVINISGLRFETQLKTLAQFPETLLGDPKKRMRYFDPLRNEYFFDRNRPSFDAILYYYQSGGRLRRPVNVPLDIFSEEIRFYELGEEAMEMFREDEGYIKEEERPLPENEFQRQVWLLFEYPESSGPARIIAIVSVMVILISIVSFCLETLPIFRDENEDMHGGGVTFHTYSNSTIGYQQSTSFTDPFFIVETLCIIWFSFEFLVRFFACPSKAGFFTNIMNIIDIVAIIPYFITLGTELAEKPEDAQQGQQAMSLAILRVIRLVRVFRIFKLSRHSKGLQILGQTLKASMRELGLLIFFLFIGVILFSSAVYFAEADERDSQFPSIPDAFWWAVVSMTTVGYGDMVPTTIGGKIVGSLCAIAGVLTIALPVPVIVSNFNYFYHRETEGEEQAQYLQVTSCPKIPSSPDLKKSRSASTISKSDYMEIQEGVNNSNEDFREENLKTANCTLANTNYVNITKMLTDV

Ce3 (Centruroides elegans toxin Ce3) (peptide)
approximate IC50 (nM) of channel block [1]: 366 nM

mokatoxin-1 (MK-1), synthesized peptide (peptide; other documents disagree on this pair)
koff (Rattus Kv1.2 (Rattus) [2]): 0.16 s⁻¹ | kon (Rattus Kv1.2 (Rattus) [2]): 260000 M⁻¹ s⁻¹ | Ki (Rattus Kv1.2 (Rattus) [3]): 620 nM

Dendroaspis natriuretic peptide (DNP) phage (from UniProt P28374 1-38)
Output (% Ligands) [4]: 0%

Shk phage (sea anemone K+ channel toxin ShK on phage) (peptide)
% phages, OUTPUT [5]: 20%

mokatoxin-1-phage (peptide)
% of the phage isolated after two rounds of selection [6]: 60% | % of the eluted phage after two rounds of panning [7]: 16.6% | % of phages after the 2nd panning [8]: 15%

mokatoxin-1 (MK-1), synthesized peptide
Ki (Homo Kv1.3 (Homo) [9]): 1 nM | approximate IC50 (nM) of channel block [10]: 680 nM | approximate IC50 (nM) of channel block [1]: 3 nM | approximate IC50 (nM) of channel block [11]: > 1000 nM | decrease in IL-2 secretion by CD3/CD28-activated human T cells at 10 nM (Homo Kv1.3 (Homo) [12]): 50% | decrease in TNF-α secretion by CD3/CD28-activated human T cells at 10 nM (Homo Kv1.3 (Homo) [12]): 50% | lowest concentration inhibiting cytokine secretion by T cells (Homo Kv1.3 (Homo) [12]): 1 nM | approximate IC50 (nM) of channel block [13]: > 1000 nM

Kaliotoxin-1 phage (KTX-phage) (peptide)
Output (% Ligands) [4]: 100% | Fold Enrichment [14]: 3.6 fold

fasciculin-2 phage (from UniProt P0C1Z0 1-61) (peptide)
Output (% Ligands) [4]: 0%

— patent US20110009283A1
